# In patent publication US20240400671A1 (published 2024):
# B1: Human (HEK) (ligand)
# chain: YSHWPSCCPSKGQDTSEELLRWSTVPVPPLEPARPNRHPESCRASEDGPLNSRAISPWRYELDRDLNRLPQDLYHARCLCPHCVSLQTGSHMDPRGNSELLYHNQTVFYRRPCHGEKGTHKGYCLERRLYRVSLACVCVRPRVMG
# B2: human IL-25 (HEK) (ligand)
# chain: B1 chain
# B3: human IL-25 (ligand)
# chain: B1 chain
# B4: ABM125 (antibody, V domains shown)
# VH: QVTLKVSGPGILQPSQTLSLTCSFSGFSLNTSGMGVGWIRQPSGKGLEWLAHIWWDDVKRYNPALKSRLTISKDTSGSQVFLKIASVDTADTATYYCARTLPHFFDYWGQGTTLTVSS
# VL: DIQMTQSPAIMSASPGEKVTISCRASSSVSYMYWYQQKSGSSPKPWIYRTSNLASGVPARFSGSGSGTSYSLTISSMEAEDAATYYCKQYHSYPPTWTFGGGTKLEIKR
# modifications: N-glycosylation site in heavy chain CDR1 created by S29N, confirmed biophysically
# B5: ABM125 (Chimera) (antibody, V domains shown)
# VH: B4 VH
# VL: B4 VL
# modifications: N-glycosylation site in heavy chain CDR1 created by S29N, confirmed biophysically
# B6: ABM125.38 (antibody, V domains shown)
# VH: QVTLKESGPTLVKPTQTLTLTCTFSGFSLSTSGMGVGWIRQPPGKALEWLAHIWWDDVKRYNPSLKSRLTITKDTSGSQVVLTMTNMDPVDTATYYCARTLPHFHDYWGQGTTLTVSS
# VL: DIQMTQSPSTLSASVGDRVTITCRASSSVSYMYWYQQKPGKAPKPLIYRTSNLASGVPSRFSGSGSGTEYTLTISSLQPDDFATYYCKQYHSYPPTWTFGGGTKVEIKR
# B7: LNR125.38 (antibody, V domains shown)
# VH: B6 VH
# VL: B6 VL
# Tests used:
# [1] = molecular target: ABM126; experiment: binding affinity
# [2] = molecular target: ABM109.2; experiment: binding affinity
# [3] = molecular target: ABM126.4; experiment: binding affinity
# [4] = molecular target: hABM125.10; experiment: SPR
# [5] = molecular target: hABM125.9; experiment: SPR
# [6] = molecular target: ABM 109.2; experiment: SPR
# [7] = molecular target: ABM 109; experiment: SPR
# [8] = molecular target: mouse IL-25 (NS0); experiment: SPR
# [9] = molecular target: Cyno Monkey (HEK); experiment: binding affinity
# [10] = molecular target: Mouse (NSO); experiment: binding affinity
# [11] = molecular target: T1, recombinant human IL-25 (R&D Systems) (human, UniProt Q9H293 33-177); experiment: binding affinity
# T1 chain: B1 chain
# [12] = molecular target: T1, recombinant human IL-25 (R&D Systems); experiment: SPR
binder,measurement,setting,value
B1,Kd,[1],0.043 nM
same,Kd,[2],1 nM
same,Kd,[3],0.024 nM
B2,Kd,[4],0.374 nM
same,Kd,[5],0.061 nM
B3,Kd,[6],0.024 nM
same,Kd,[7],0.004 nM
B4,Kd,[8],0.0073 nM
same,Kd,[9],0.17 nM
same,Kd,[10],0.168 nM
B5,Kd,[11],0.128 nM
same,Kd,[12],0.0053 nM
B6,Kd,[9],0.235 nM
same,Kd,[10],0.096 nM
B7,Kd,[11],0.051 nM
